PMC8683085, “Serine ADP-ribosylation marks nucleosomes for ALC1-dependent chromatin remodeling” (eLife, 2021)

Biological target: unmodified nucleosome (UniProt P68431)

In the case of “ALC1 (full-length, 6xHis-1xFLAG-ALC1) (from UniProt Q86WJ1 1-897) (enzyme)”, the ALC1 nucleosome remodeling rate constant (REA assay) is reported as under 0.0003 min⁻¹.
